The values that follow come from paper PMC1974823.

The target of the data set is T1, rFimR (Porphyromonas gingivalis (ATCC 33277?)) (UniProt B2RJ77).
T1 sequence: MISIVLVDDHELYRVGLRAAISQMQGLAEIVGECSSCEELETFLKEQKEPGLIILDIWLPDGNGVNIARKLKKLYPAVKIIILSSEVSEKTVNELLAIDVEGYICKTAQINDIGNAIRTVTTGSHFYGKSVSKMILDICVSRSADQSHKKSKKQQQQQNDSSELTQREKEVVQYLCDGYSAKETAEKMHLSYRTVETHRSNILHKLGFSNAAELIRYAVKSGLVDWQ
Nature of the data set: EMSA. A general note: In EMSA bound probe runs differently from free probe, usually more slowly.

In the case of “CAGATGGGTTGTTGCTCAAGGAGAACGTCGCCAATACCTAAGCAAGAAAAGAGGAACTGTTCCAGAAAATACTTGGGTTACTCCGGGTTCTGGTTTCGTTCCTACCAGCAGCACTTTCTAT (double strand) [mfa1 coding region (121 bp)]”, the binding result is “no binding”.
For the sequence “TGTAACGGGTTCTGCCTCGTTGTCTTTGTTACAAGCTGTCATAGCAAGAGCAGCAAGTCCCAACAAGAAAAACTTTGTTTTTTTCATCTCGTTTTTGTTTTAAAAGTGAATATTGTTTTCTAAAAATCTAATCTTTTCCCATTTAGAGATTGTCTTGCATATAGCGTCG (double strand) [fimA promoter (176 bp)]”, the binding entry is given as “no binding”.
